According to patent publication US20220348609A1 (University of Washington, published 2022):

Target: T1, human αvβ6 integrin on cells (A431 carcinoma cells; K562 cells stably transfected with αvβ6) (human, UniProt P06756 31-1048; P18564 22-788)
T1 construct: whole, on cells; Endogenous on A431 cells, transfected on K562 cells; also called αvβ6(+) cells; K562 avb6 transfected clone A4
Assay: row 'X(selectivity)' of the drawn table: αvβ6 over αvβ8, cell surface competition assay

T1 sequence (P06756 31-1048, chain 1 of 2): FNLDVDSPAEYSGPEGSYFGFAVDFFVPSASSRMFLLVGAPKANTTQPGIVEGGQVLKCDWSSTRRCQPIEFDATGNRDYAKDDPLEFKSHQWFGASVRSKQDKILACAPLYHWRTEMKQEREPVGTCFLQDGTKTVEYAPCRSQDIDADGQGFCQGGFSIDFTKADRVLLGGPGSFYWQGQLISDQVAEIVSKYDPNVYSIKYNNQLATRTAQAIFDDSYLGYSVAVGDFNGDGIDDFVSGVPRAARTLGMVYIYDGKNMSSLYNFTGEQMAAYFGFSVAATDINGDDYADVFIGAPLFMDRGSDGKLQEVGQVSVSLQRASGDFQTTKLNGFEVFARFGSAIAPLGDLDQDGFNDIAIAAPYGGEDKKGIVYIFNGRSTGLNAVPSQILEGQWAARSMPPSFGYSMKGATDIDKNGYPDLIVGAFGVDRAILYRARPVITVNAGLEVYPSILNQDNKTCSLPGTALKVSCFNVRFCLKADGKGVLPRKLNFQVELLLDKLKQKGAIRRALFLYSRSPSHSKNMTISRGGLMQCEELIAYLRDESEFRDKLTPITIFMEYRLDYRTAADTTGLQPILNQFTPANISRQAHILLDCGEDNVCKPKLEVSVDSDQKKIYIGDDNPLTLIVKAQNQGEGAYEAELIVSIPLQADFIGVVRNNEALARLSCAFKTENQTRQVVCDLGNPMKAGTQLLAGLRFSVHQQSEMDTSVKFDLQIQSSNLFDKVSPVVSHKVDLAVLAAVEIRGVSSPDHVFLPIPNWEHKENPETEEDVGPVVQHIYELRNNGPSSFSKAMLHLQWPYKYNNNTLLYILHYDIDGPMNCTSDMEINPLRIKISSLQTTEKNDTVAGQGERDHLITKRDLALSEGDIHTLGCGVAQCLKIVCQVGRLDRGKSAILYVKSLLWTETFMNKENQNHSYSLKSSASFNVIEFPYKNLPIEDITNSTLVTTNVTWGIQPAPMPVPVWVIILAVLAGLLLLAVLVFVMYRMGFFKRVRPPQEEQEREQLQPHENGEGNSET
T1 sequence (P18564 22-788, chain 2 of 2): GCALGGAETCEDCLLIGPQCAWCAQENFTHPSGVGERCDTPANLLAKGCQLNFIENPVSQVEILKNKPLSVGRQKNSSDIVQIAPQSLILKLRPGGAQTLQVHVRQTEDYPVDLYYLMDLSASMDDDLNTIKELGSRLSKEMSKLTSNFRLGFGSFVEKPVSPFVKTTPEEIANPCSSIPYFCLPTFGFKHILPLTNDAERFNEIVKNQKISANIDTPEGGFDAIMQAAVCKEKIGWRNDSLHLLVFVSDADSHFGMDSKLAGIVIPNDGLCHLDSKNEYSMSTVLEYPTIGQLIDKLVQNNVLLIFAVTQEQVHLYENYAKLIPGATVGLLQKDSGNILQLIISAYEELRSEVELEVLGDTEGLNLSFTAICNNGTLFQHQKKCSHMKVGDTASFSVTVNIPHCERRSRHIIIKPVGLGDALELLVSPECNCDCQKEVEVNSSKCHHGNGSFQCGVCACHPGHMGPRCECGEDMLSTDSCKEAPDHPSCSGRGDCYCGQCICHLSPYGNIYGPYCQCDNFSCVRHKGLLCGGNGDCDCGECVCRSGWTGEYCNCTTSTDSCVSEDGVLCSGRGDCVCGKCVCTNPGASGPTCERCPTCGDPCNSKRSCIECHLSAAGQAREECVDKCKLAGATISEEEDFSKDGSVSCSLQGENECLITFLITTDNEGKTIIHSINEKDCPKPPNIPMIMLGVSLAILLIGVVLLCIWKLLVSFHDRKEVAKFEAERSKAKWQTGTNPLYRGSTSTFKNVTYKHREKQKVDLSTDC

| X(selectivity) [X] | Binder |
| --- | --- |
| 14 | av6_3 (designed binder, the purified protein (BLI, cell assays) carries a C-terminal His tag; also called αv6_3; original unevolved av6_3; not shown: C-terminal His tag of the purified protein (pET29b, NdeI/XhoI)) MAVVRFVFRGDLAELMLRAVKDHLKKEGPHWNITSTNNGAELVVRGIHESDAKRIAKWVEKRFPGVHTETQQD |
| 1.5 | av6_7 (designed binder, Yeast display: Aga2 fusion with C-terminal myc tag; also purified from E. coli with C-terminal His tag) MAVVRFVFRGDLAELMLRAVKDHLKKEGPHWNITSDESGFELVVRGIHESDAKRIAKWVEKRFPGVHTETQQD |
| 3 | evolved variant from the first round of design (02_E2V_T12A_E40V_S44I_T63I) (designed binder, No substitutions were applied here; also called original crystallized variant) AVVRFVFRGDLAELMLRAVKDHLKKEGPHWNITSRGNELVVRGIHESDAKRIQKEFPSVQSTIQA |
| 8 | av6_11 (designed binder, Yeast display: Aga2 fusion with C-terminal myc tag; also purified from E. coli with C-terminal His tag) MAVVRFVFRGDLAELMLRAVKDHLKKEGPHWNITSDTSKGAELVVRGIHESDAKRIAKWVEKRFPGVHTETQQ |
| 6 | av6_15 (designed binder, Yeast display: Aga2 fusion with C-terminal myc tag; also purified from E. coli with C-terminal His tag) MAVVRFVFRGDLAELMLRAVKDHLKKEGPHWNITSVESSQVELVVRGIHESDAKRIAKWVEKRFPGVHTETQQ |
| 3 | av6_9 (designed binder, Yeast display: Aga2 fusion with C-terminal myc tag; also purified from E. coli with C-terminal His tag) MAVVRFVFRGDLAELMLRAVKDHLKKEGPHWNITSDTSKGAELVVRGIHESDAKRIARTVEKLTNGKSQSLVL |

Target: T2, human αvβ6 integrin, soluble protein (biotinylated for yeast display; in solution for BLI) (human, UniProt P06756 31-992; P18564 22-707, limits assumed, biotinylated in the yeast display experiments (site not stated))
T2 construct: also called avb6; alpha(v) beta (6) integrin
T2 sequence (P06756 31-992 limits assumed, chain 1 of 2): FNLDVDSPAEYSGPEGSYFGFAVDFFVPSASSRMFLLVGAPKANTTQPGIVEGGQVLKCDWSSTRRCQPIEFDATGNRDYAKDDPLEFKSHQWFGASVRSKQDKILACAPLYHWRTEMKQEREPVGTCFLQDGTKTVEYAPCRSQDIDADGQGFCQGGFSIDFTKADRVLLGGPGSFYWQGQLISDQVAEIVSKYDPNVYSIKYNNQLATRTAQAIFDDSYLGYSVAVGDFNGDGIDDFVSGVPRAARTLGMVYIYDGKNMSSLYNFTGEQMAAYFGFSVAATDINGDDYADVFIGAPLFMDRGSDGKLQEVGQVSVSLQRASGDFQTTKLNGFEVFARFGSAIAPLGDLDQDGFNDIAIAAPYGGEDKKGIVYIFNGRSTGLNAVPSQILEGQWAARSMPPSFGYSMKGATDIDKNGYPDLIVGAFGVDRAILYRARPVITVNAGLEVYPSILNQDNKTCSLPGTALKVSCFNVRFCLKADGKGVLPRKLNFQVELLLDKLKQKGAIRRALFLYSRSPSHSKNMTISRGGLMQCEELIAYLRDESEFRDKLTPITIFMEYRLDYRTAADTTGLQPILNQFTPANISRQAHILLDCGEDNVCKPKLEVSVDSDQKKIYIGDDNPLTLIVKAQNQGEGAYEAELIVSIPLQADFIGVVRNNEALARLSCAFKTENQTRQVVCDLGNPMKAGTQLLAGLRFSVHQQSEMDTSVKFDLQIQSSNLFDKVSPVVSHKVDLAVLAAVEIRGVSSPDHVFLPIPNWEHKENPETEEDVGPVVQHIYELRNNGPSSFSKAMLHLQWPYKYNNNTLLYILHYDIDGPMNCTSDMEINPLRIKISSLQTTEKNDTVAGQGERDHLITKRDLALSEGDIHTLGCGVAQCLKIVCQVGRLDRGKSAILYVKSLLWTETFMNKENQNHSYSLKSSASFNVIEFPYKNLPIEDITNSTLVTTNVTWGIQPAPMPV
T2 sequence (P18564 22-707 limits assumed, chain 2 of 2): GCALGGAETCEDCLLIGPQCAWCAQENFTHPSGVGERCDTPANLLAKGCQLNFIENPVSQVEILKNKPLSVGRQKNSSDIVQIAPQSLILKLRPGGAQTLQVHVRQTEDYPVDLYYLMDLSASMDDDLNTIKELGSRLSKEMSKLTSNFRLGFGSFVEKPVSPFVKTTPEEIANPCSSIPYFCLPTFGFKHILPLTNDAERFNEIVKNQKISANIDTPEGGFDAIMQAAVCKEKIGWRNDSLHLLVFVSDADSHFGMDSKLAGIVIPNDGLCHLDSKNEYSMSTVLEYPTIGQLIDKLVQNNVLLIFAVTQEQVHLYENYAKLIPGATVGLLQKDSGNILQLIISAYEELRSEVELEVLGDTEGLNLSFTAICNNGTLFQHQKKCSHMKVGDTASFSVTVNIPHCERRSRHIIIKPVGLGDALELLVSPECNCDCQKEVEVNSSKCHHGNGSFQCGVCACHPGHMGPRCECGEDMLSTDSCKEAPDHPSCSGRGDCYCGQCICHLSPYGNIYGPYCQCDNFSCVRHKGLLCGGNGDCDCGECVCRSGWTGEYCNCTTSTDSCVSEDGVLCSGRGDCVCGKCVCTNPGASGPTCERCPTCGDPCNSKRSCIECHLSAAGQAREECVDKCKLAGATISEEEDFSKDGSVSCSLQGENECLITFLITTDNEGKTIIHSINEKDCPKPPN
Assay: BLI (Octet RED96), His-tagged binder on Ni-NTA sensor, αvβ6 in solution

| apparent Kd (pooled screen) [nM] | Binder |
| --- | --- |
| 1.18 | av6_3 (designed binder, the purified protein (BLI, cell assays) carries a C-terminal His tag; also called αv6_3; original unevolved av6_3; not shown: C-terminal His tag of the purified protein (pET29b, NdeI/XhoI)) MAVVRFVFRGDLAELMLRAVKDHLKKEGPHWNITSTNNGAELVVRGIHESDAKRIAKWVEKRFPGVHTETQQD |

Target: T1, human αvβ6 integrin on cells (A431 …)
Assay: flow cytometry titration of AF488-labelled binder on A431 cells, 5 hours at 4° C., one site-specific binding fit
Description: We set out to test the ability of these binders to bind to αᵥβ₆(+) cells and block TGF-β mediated downstream signaling. We generated fluorescently labelled BP1 and BP2 by conjugating Alexafluor-488 to an engineered C-term cysteine via maleimide chemistry. The fluorescently labelled proteins were titrated against αᵥβ₆ positive human epidermoid carcinoma A431 cells.
Epidermoid cancer cells (A431) and human embryonic kidney 293T cells (HEK 293T) were purchased from American Type Culture Collection (ATCC) and grown in Dulbecco's Modified Eagle Medium (DMEM, Gibco) supplemented with 10% fetal bovine serum (FBS, Gibco) in a humidified atmosphere with 5% CO2 at 37° C. Binding assays were performed on A431 carcinoma cells. A431 cells were dissociated from culture flasks with enzyme-free cell dissociation buffer (Gibco). Varying concentrations of AG-AF488 and E13T-AF488 were incubated with 5×10^4 A431 cells in 1×TBS with 0.1% BSA, 1 mM Ca2+, and 1 mM Mg2+ (BTBS) rotating in suspension for 5 hours at 4° C. Sufficient incubation volumes were used to avoid >5% ligand depletion. After incubation, cells were washed with BTBS and analyzed by flow cytometry on an Accuri™ C6 instrument (BD Biosciences), and data were quantified using FlowJo™ software (TreeStar). Kd values were determined by fitting the data to a one site—specific binding curve using Prism™ 7 (GraphPad Software).

| Kd [nM] | Binder |
| --- | --- |
| 0.03 | BP2 labelled with Alexa Fluor 488 on an engineered C-terminal cysteine (designed binder, Alexa Fluor 488 C5 maleimide on the engineered C-terminal cysteine, also called AG-AF488; fluorescently labelled BP2; not shown: engineered C-terminal cysteine and any tag) MAVVRFVFRGDLAELMLRAVKDHLKKEGPHWNITSTNNGKELVVRGIHESDAKRIAKWVEKRFPRVHTETQQD |
| 0.167 | BP1 labelled with Alexa Fluor 488 on an engineered C-terminal cysteine (designed binder, Alexa Fluor 488 C5 maleimide on the engineered C-terminal cysteine, also called E13T-AF488; fluorescently labelled BP1; not shown: engineered C-terminal cysteine and any tag) MAVVRFVFRGDLATLMLRAVKDHLKKEGPHWNITSTNNGAELVVRGIHESDAKRIAKWVEKRFPGVHTETQQD |

Target: T2, human αvβ6 integrin, soluble protein …
Assay: BLI (Octet RED96), His-tagged binder on Ni-NTA sensor, αvβ6 in solution
Remark: another data set of the same source
Protocol: Data was collected on an Octet™ RED96 (Forte Bio) and processed using the instrument's software. His Tagged protein binders were immobilized on Ni-NTA octet sensors. The tips are then dipped into wells containing different concentrations of αᵥβ₆. Association and dissociation steps were recorded for 900 s and 1200 s respectively. An empty sensor with no loaded binding protein was included to discard any non-specific binding of αᵥβ₆ to the octet tip.

| Kd [nM] | Binder |
| --- | --- |
| 0.47 | av6_3 G64R (designed binder, not shown: C-terminal His tag (pET29b, NdeI/XhoI)) MAVVRFVFRGDLAELMLRAVKDHLKKEGPHWNITSTNNGAELVVRGIHESDAKRIAKWVEKRFPRVHTETQQD |
| 0.404 | av6_3 M15RG64R (designed binder, not shown: C-terminal His tag (pET29b, NdeI/XhoI)) MAVVRFVFRGDLAELRLRAVKDHLKKEGPHWNITSTNNGAELVVRGIHESDAKRIAKWVEKRFPRVHTETQQD |
| 0.38 | av6_3 M15R (designed binder, not shown: C-terminal His tag (pET29b, NdeI/XhoI)) MAVVRFVFRGDLAELRLRAVKDHLKKEGPHWNITSTNNGAELVVRGIHESDAKRIAKWVEKRFPGVHTETQQD |
| 0.397 | av6_3 E13TM15RA39K (designed binder, not shown: C-terminal His tag (pET29b, NdeI/XhoI)) MAVVRFVFRGDLATLRLRAVKDHLKKEGPHWNITSTNNGKELVVRGIHESDAKRIAKWVEKRFPGVHTETQQD |
| 0.411 | av6_3 A39K (designed binder, not shown: C-terminal His tag (pET29b, NdeI/XhoI)) MAVVRFVFRGDLAELMLRAVKDHLKKEGPHWNITSTNNGKELVVRGIHESDAKRIAKWVEKRFPGVHTETQQD |
| 0.42 | av6_3 E13TM15RA39KG64R (designed binder, not shown: C-terminal His tag (pET29b, NdeI/XhoI)) MAVVRFVFRGDLATLRLRAVKDHLKKEGPHWNITSTNNGKELVVRGIHESDAKRIAKWVEKRFPRVHTETQQD |
| 0.398 | av6_3 E13TG64R (designed binder, not shown: C-terminal His tag (pET29b, NdeI/XhoI)) MAVVRFVFRGDLATLMLRAVKDHLKKEGPHWNITSTNNGAELVVRGIHESDAKRIAKWVEKRFPRVHTETQQD |

Target: T2, human αvβ6 integrin, soluble protein …
Assay: yeast surface display, flow cytometry, 50 pM biotinylated αvβ6 stained with SAPE
Description: Yeast Display: Standard yeast surface display techniques were used to screen designs for binding and directed evolution. Genes encoding the designs were cloned into petcon2 in frame with N-term aga2 and C-term myc tag. Surface expression of Myc was detected using Anti-C Myc antibody and binding was detected by using biotinylated human αᵥβ₆ and stained with phycoerythrin conjugated streptavidin for FACS. Two different buffers were used for the binding and washing steps for yeast display: Binding Buffer 20 mM TRIS, 150 mM NaCl, pH=8.0, 1% BSA, 1 mM Ca(II) and 1 mM Mg(II), Wash Buffer: 20 mM TRIS, 150 mM NaCl, pH=8.0, 0.5% BSA, 1 mM Ca(II) and 1 mM Mg(II).

| binding result | Binder |
| --- | --- |
| binds | av6_4 (designed binder) single chain: MAVVRFVFRGDLAELMLRAVKDHLKKEGPHWNITSTNNGAELVVRGIHESDAKRIAKWARLKFPGTDTRIEVR |
| binds | av6_8 (designed binder) single chain: MAVVRFVFRGDLAELMLRAVKDHLKKEGPHWNITSDESGFELVVRGIHESDAKRIAKWARLKFPGTDTRIEVR |
| binds | av6_1 (designed binder) single chain: MAVVRFVFRGDLAELMLRAVKDHLKKEGPHWNITSTNNGAELVVRGIHESDAKRIARTVEKLTNGKSQSLVLT |
| binds | av6_5 (designed binder) single chain: MAVVRFVFRGDLAELMLRAVKDHLKKEGPHWNITSDESGFELVVRGIHESDAKRIARTVEKLTNGKSQSLVLT |
| binds | av6_12 (designed binder) single chain: MAVVRFVFRGDLAELMLRAVKDHLKKEGPHWNITSDTSKGAELVVRGIHESDAKRIAKWARLKFPGTDTRIEV |
| binds | av6_16 (designed binder) single chain: MAVVRFVFRGDLAELMLRAVKDHLKKEGPHWNITSVESSQVELVVRGIHESDAKRIAKWARLKFPGTDTRIEV |
| binds | av6_13 (designed binder) single chain: MAVVRFVFRGDLAELMLRAVKDHLKKEGPHWNITSVESSQVELVVRGIHESDAKRIARTVEKLTNGKSQSLVL |
